What was measured:
Test in all cases: FACS staining of transfected 293 cells with Fc fusion protein, labeled anti-human IgG Fc detection
[1] = target: T1, CTLA4-huFC (extracellular region of murine CTLA4 fused to a human Fc region of an IgG1 antibody) (murine; human, UniProt P09793 36-161; P01857 99-330 = IgG part, limits assumed)
T1 construct: extracellular domain;domain: Fc region; Made in transfected cells and purified by Protein A chromatography
Experimental: (§1) Full length versions of each of three murine cDNAs (encoding BTL-II, B7RP-1, CD80) were inserted into a vector appropriate for expression. About 10 μg of each of these constructs, along with an empty vector, were used separately to transfect 293 cells. Two days post transfection, about one million cells from each of the four transfections were stained with each of the fusion proteins described above. Bound protein was detected using a fluorescently labeled antibody against the human IgG Fc region. The stained cells were analyzed by FACS.

[2] = target: T2, mCD28-huFC (extracellular region of murine CD28 fused to a human Fc region from an IgG1 antibody) (murine; human, UniProt P31041 20-150; P01857 100-330 = IgG part)
T2 construct: extracellular domain;domain: Fc region; Bought from R & D Systems
Experimental: as §1

[3] = target: T3, ICOS-huFC (extracellular region of murine ICOS fused to a human Fc region from an IgG1 antibody) (murine; human, UniProt Q9WVS0 21-144; P01857 99-330 = IgG part, limits assumed)
T3 construct: extracellular domain;domain: Fc region; Made in transfected cells and purified by Protein A chromatography
Experimental: as §1

[4] = target: T4, PD1-huFC (extracellular region of murine PD-1 fused to a human Fc region of an IgG1 antibody) (murine; human, UniProt Q02242 25-169; P01857 100-330 = IgG part)
T4 construct: extracellular domain;domain: Fc region; Bought from R & D Systems
Experimental: as §1

T1 sequence (P09793 other isoform, or with tags, fused parts or gaps limits assumed): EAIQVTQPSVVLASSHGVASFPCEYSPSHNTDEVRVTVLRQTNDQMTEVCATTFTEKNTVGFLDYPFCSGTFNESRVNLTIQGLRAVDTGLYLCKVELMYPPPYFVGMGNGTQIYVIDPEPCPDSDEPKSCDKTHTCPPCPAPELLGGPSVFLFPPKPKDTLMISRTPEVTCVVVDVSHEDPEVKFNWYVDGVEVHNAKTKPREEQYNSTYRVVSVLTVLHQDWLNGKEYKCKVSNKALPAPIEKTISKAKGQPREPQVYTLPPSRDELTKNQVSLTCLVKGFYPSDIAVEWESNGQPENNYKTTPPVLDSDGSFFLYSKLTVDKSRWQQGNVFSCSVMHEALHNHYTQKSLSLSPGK
T2 sequence (P31041 other isoform, or with tags, fused parts or gaps limits assumed): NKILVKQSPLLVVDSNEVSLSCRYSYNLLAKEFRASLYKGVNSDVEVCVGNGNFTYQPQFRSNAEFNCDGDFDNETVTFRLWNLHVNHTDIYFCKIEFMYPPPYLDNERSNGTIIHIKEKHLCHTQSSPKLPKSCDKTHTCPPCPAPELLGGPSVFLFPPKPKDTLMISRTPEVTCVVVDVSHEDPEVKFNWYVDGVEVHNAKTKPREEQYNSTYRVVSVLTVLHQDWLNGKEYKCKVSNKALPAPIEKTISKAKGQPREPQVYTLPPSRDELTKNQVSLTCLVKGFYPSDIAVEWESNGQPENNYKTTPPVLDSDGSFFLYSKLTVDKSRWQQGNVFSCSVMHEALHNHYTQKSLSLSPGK
T3 sequence (Q9WVS0 other isoform, or with tags, fused parts or gaps limits assumed): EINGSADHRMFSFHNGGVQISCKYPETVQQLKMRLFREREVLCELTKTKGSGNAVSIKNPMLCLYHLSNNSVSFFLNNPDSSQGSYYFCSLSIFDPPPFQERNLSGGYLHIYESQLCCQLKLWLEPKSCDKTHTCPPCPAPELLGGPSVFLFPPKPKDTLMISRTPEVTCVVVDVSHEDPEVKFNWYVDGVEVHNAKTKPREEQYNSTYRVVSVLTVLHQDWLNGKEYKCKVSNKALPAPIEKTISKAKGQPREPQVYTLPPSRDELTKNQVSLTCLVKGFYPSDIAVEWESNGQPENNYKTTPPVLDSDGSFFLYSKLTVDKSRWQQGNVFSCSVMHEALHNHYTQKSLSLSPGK
T4 sequence (Q02242 other isoform, or with tags, fused parts or gaps limits assumed): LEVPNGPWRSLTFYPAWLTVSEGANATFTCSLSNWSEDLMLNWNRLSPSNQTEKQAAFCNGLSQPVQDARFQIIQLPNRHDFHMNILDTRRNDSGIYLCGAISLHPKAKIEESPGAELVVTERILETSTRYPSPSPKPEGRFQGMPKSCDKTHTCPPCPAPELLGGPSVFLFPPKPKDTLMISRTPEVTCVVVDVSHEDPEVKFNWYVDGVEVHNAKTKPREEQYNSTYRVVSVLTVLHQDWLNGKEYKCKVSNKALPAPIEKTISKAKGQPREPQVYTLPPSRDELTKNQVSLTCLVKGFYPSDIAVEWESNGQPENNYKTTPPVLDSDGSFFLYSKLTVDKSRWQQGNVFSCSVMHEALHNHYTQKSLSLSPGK

Row | binding result [1] | binding result [2] | binding result [3] | binding result [4] | Binder
1 | no binding | no binding | binds | no binding | murine B7RP-1 (full length, expressed on transfected 293 cells) (ligand, UniProt Q9JHJ8 44-322, looked up, whole, on cells; also called B7h; B7-H2) ASAETEVGAMVGSNVVLSCIDPHRRHFNLSGLYVYWQIENPEVSVTYYLPYKSPGINVDSSYKNRGHLSLDSMKQGNFSLYLKNVTPQDTQEFTCRVFMNTATELVKILEEVVRLRVAANFSTPVISTSDSSNPGQERTYTCMSKNGYPEPNLYWINTTDNSLIDTALQNNTVYLNKLGLYDVISTLRLPWTSRGDVLCCVENVALHQNITSISQAESFTGNNTKNPQETHNNELKVLVPVLAVLAAAAFVSFIIYRRTRPHRSYTGPKTVQLELTDHA
2 | no binding | no binding | no binding | no binding | murine BTL-II (full length, expressed on transfected 293 cells) (ligand) FRVVGPNLPILAKVGEDALLTCQLLPKRTTAHMEVRWYRSDPAMPVIMYRDGAVVTGLPMEGYGGRAEWMEDSTEEGSVALKIRQVQPSDDGQYWCRFQEGDYWRETSVLLQVAALGSSPNIHVEGLGEGEVQLVCTSRGWFPEPEVHWEGIWGEKLMSFSENHVPGEDGLFYVEDTLMVRNDSVETISCFIYSHGLRETQEATIALSERLQTELVSVSVIGHSQPSPVQVGENIELTCHLSPQTDAQNLEVRWLRSRYYPAVHVYANGTHVAGEQMVEYKGRTSLVTDAIHEGKLTLQIHNARTSDEGQYRCLFGKDGVYQEARVDVQVTAVGSTPRITREVLKDGGMQLRCTSDGWFPRPHVQWRDRDGKTMPSFSEAFQQGSQELFQVETLLLVTNGSMVNVTCSISLPLGQEKTARFPLSDSKIALLWMTLPVVVLPLAMAMDLIKVKRRRRTNEQTHSSNQENNKNDENHRRRLPSDERLR
3 | binds | binds | no binding | no binding | murine CD80 (full length, expressed on transfected 293 cells) (ligand, UniProt Q00609 38-306, looked up, whole, on cells; also called B7-1) VDEQLSKSVKDKVLLPCRYNSPHEDESEDRIYWQKHDKVVLSVIAGKLKVWPEYKNRTLYDNTTYSLIILGLVLSDRGTYSCVVQKKERGTYEVKHLALVKLSIKADFSTPNITESGNPSADTKRITCFASGGFPKPRFSWLENGRELPGINTTISQDPESELYTISSQLDFNTTRNHTIKCLIKYGDAHVSEDFTWEKPPEDPPDSKNTLVLFGAGFGAVITVVVIVVIIKCFCKHRSCFRRNEASRETNNSLTFGPEEALAEQTVFL

— patent US20040209289A1 (IMMUNEX, published 2004)
